The source of these data is PMC7747229 (Nature, 2020).

The data set deals with the molecule itself. The experiment in a line: cryo-EM structure.

“And” between values parts separate entries of the source, which are not always exact repeats. Equal values may be shown once.

B1: KAT1em (KAT1 from Arabidopsis thaliana, amino acids M1-S502) (domain or fragment)
chain: not shown
Consider B1, for which the “stoichiometry N” value was 8 and 4.

A word on the stoichiometry N: it is a count of units in the complex or per binding partner.
